Legend:
human claudin-6 = molecular target: T1, human claudin-6 (Homo sapiens, UniProt P56747); assay: FACS analysis of 218B1/218C7 antibodies on human claudin-6-expressing CHO-K1 cells; format: binding; conditions: forced expression by cDNA transfection
T1 construct: expressed in transfected cells; host or cells: CHO-K1 cells
T1 sequence (P56747 1-220): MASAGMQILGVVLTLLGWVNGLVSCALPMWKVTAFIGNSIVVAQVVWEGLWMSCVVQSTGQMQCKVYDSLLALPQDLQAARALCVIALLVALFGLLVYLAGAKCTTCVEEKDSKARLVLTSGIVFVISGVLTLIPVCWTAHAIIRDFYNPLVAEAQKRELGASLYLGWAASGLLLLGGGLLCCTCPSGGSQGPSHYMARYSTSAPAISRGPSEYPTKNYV
Description: Since the antigen for the 218B1 antibody and 218C7 antibody was estimated to be claudin-6 from the mass spectrometry, forced expression analysis by cDNA transfection was carried out.

JEG-3 = assay: Internalization activity by Mab-ZAP (saporin-conjugated anti-mouse IgG), cell survival; format: cell-based; conditions: human CLDN6-positive choriocarcinoma cell line JEG-3; antibody 1 nM, Mab-ZAP 0.5 nM; 5 days
Description: (§1) Internalization activity of the mouse anti-CLDN6 antibodies B1 and C7 was evaluated by using the anti-mouse IgG reagent, to which a toxin that inhibits protein synthesis (saporin) had been conjugated, Mab-ZAP (Advanced Targeting Systems). In this evaluation, Mab-ZAP is incorporated into cells in a manner depending on the internalization activity of a mouse anti-CLDN6 antibody, and saporin, which inhibits protein synthesis, is released in the cells to suppress cell growth.
(§2) JEG-3(ATCC HTB-36), a human choriocarcinoma cell line of human CLDN6-positive cells, NIH:OVCAR-3 (ATCC HTB-161), a human ovarian cancer cell line of human CLDN6-positive cells, or BxPC-3 (ATCC CRL-1687), a human pancreatic cancer cell line of human CLDN6-negative cells, was seeded in a 96-well cell culture microplate at 2×10^3 cells/well, and cultured under conditions of 37° C. and 5% CO2 overnight. On the next day, a mixed solution obtained by mixing each mouse anti-CLDN6 antibody or mouse IgG1 antibody (R&D Systems, Inc.) to a final concentration of 1 nM, with Mab-ZAP (final concentration: 0.5 nM) or AffiniPure Goat Anti-Mouse IgG, Fcγ Fragment Specific (Jackson ImmunoResearch Laboratories Inc.) (final concentration: 0.5 nM), without conjugated toxin, was added, and the cells were cultured under conditions of 37° C. and 5% CO2 for 5 days. The number of surviving cells was determined through quantification of ATP activity by using CellTiter-Glo Luminescent Cell Viability Assay (Promega Corporation).

BxPC-3 = assay: as above; format: cell-based; conditions: human CLDN6-negative pancreatic cancer cell line BxPC-3; antibody 1 nM, Mab-ZAP 0.5 nM; 5 days
Description: as §1, §2

NIH:OVCAR-3 = assay: as above; format: cell-based; conditions: human CLDN6-positive ovarian cancer cell line NIH:OVCAR-3; antibody 1 nM, Mab-ZAP 0.5 nM; 5 days
Description: as §1, §2

human CLDN9 = molecular target: T2, human CLDN9 (human, UniProt O95484 1-217); assay: flow cytometry (MFI) on transiently transfected 293T cells
T2 construct: NP_066192; It was expressed on 293T cells transiently transfected with human CLDN9/pCMV6-Entry (OriGene); also called claudin-9
T2 sequence: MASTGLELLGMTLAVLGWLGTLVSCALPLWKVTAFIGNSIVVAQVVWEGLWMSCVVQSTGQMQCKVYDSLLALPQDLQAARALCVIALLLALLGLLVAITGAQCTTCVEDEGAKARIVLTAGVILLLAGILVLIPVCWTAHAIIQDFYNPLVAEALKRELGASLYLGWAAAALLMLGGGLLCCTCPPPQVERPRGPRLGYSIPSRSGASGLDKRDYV
Description: (§3) The binding activity of the humanized anti-CLDN6 antibody produced in Example 10 to human CLDN6 and its family molecules, CLDN3, CLDN4, and CLDN9, was evaluated by using a flow cytometry method. […] The cells were washed with Dulbecco's phosphate buffered saline (Sigma-Aldrich Co. LLC) containing 5% fetal bovine serum (Hyclone) (hereinafter, referred to as 5% FBS-containing PBS), and FITC AffiniPureF (ab′)2 Fragment Goat Anti-Human IgG (H+L) (Jackson ImmunoResearch Laboratories Inc.) 150-fold diluted with 5% FBS-containing PBS was then added thereto, and the cells were suspended and left to stand at 4° C. for 30 minutes. After washing with 5% FBS-containing PBS, detection was carried out by using a flow cytometer (FC500; Beckman Coulter, Inc.). Data analysis was carried out by using FlowJo (Tree Star, Inc.), and mean fluorescence intensity (MFI) of FITC, which indicates the amount of the binding antibody, was calculated. […] In each graph in FIG. 42, the abscissa represents antibody concentrations and the ordinate represents MFI.

human CLDN6 = molecular target: T3, human CLDN6 (human, UniProt P56747 1-220); assay: as above
T3 construct: Four-transmembrane protein, NP_067018; It was also expressed on CHO-K1 cells by cDNA transfection; In the immunoprecipitation it was the endogenous protein from NTERA-2 cell lysate; also called hCLDN6; claudin-6
T3 sequence: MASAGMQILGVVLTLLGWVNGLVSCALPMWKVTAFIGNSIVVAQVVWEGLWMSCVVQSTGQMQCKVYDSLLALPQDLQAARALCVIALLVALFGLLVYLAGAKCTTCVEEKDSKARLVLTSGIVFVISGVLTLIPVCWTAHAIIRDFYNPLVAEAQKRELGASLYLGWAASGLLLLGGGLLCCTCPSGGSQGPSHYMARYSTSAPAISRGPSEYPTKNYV
Description: as §3

human CLDN3 = molecular target: T4, human CLDN3 (human, UniProt O15551 1-220); assay: flow cytometry on transiently transfected 293T cells
T4 construct: whole, on cells
T4 sequence (looked up): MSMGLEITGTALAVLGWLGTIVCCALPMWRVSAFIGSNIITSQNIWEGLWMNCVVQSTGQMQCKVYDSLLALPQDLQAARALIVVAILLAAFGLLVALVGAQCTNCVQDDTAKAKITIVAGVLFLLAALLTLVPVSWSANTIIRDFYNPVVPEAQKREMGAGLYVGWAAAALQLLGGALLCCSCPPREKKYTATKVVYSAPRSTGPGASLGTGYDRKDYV
Description: (§4) Binding activity of the mouse anti-CLDN6 antibodies produced in Example 6 to human CLDN6 and its family molecules, CLDN3, CLDN4, and CLDN9, was evaluated by using a flow cytometry method. Human CLDN3/pCMV6-Entry, human CLDN4/pCMV6-Entry, human CLDN6/pCMV-Entry, human CLDN9/pCMV6-Entry, or pCMV6-Entry purchased from OriGene Technologies, Inc. was transiently transferred into 293T cells (Thermo Fisher Scientific, HCL4517) by using Lipofectamine 2000 (Thermo Fisher Scientific), and the cells were cultured under conditions of 37° C. and 5% CO₂ overnight, and then a cell suspension was prepared. […] The cells were washed twice with Dulbecco's phosphate buffered saline (Sigma-Aldrich Co. LLC) containing 5% fetal bovine serum (Hyclone) (hereinafter, referred to as 5% FBS-containing PBS), and FLUORESCEIN-CONJUGATED GOAT IGG FRACTION TO MOUSE IGG (WHOLE MOLECULE) (MP Biomedicals, Inc.) 500-fold diluted with 5% FBS-containing PBS was then added thereto, and the cells were suspended and left to stand at 4° C. for 1 hour. After washing twice with 5% FBS-containing PBS, detection was carried out by using a flow cytometer (FC500; Beckman Coulter, Inc.). Data analysis was carried out by using FlowJo (Tree Star, Inc.). […] In each graph in FIG. 40, the ordinate represents FITC fluorescence intensity indicating the amount of the binding antibody and the abscissa represents antibody concentrations.
(§5) The binding activity of the humanized anti-CLDN6 antibody produced in Example 10 to human CLDN6 and its family molecules, CLDN3, CLDN4, and CLDN9, was evaluated by using a flow cytometry method.

human CLDN4 = molecular target: T5, human CLDN4 (human, UniProt O14493 1-209); assay: as above
T5 construct: whole, on cells
T5 sequence (looked up): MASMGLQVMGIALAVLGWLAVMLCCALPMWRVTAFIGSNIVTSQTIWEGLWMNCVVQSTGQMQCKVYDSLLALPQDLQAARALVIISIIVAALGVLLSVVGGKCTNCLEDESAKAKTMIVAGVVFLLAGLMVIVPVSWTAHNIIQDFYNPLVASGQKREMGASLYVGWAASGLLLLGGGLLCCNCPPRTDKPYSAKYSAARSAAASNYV
Description: as §4, §5

Molecule	FACS reaction for human claudin-6-expressing CHO-K1 cells (human claudin-6)	cell growth-suppressing effect (relative survival rate) with Mab-ZAP (JEG-3)	cell growth-suppressing effect (relative survival rate) with Mab-ZAP (BxPC-3)	cell growth-suppressing effect (relative survival rate) with Mab-ZAP (NIH:OVCAR-3)	binding result (human CLDN9)	binding result (human CLDN6)	binding result (human CLDN3)	binding result (human CLDN4)
B1: mouse anti-CLDN6 antibody; heavy/light chain variable regions SEQ ID NO: 21 and 19 (antibody, listed as Mus musculus, V domains shown, amino acid sequence of variable region of B1 antibody heavy chain; amino acid sequence of variable region of B1 antibody light chain) VH: EVQLQQSGPELVKPGASVKISCKTSGYTFTEYTMHWVQQSHGKSLEWIGGVNPNSGDTSYNQKFKGKATLTVDKSSSTAYMELRSLTSEDSAVYYCARPGGYDVGYYAMDYWGQGTSVTVSS VL: DIQMTQTASSLSASLGDRVTISCRASQDINNYLNWYQQKPDGTVKLLIYFTSRLHSGVPSRFSGSGSGTHYSLTITNLEQEDIATYFCQQGYPLPWTFGGGTKLEIK	strong positive reaction	cell growth-suppressing effect	no cell growth-suppressing effect	cell growth-suppressing effect				
humanized anti-CLDN6 antibody H1L3 (antibody, human IgG1, kappa, L234A L235A, V domains shown, hH1 + hL3, with human IgG1 LALA constant region and human kappa chain; also called H1L3 antibody) VH: QVQLVQSGAEVKKPGASVKVSCKASGYTFTEYTMHWVRQAPGQGLEWMGGVNPNSGDTSYAQKFQGRVTITADTSTSTAYMELSSLRSEDTAVYYCARPGGYDVGYYAMDYWGQGTLVTVSS VL: DIQMTQSPSSLSASVGDRVTITCRASQDINNYLNWYQQKPGGAVKLLIYFTSRLHSGVPSRFSGSGSGTDYTLTISSLQPEDFATYYCQQGYPLPWTFGGGTKVEIKR					binds	binds	no binding (tested: 100 nM)	no binding (tested: 100 nM)
humanized anti-CLDN6 antibody H2L2 (antibody, human IgG1, kappa, L234A L235A, V domains shown, hH2 + hL2, with human IgG1 LALA constant region and human kappa chain; also called H2L2 antibody) VH: EVQLVQSGAEVKKPGASVKVSCKTSGYTFTEYTMHWVRQAPGKSLEWMGGVNPNSGDTSYAQKFQGRVTITADTSTSTAYMELSSLRSEDTAVYYCARPGGYDVGYYAMDYWGQGTLVTVSS VL: DIQMTQSPSSLSASVGDRVTITCRASQDINNYLNWYQQKPGKAVKLLIYFTSRLHSGVPSRFSGSGSGTHYTLTISSLQPEDFATYYCQQGYPLPWTFGQGTKVEIKR					binds	binds	no binding (tested: 100 nM)	no binding (tested: 100 nM)
humanized anti-CLDN6 antibody H2L4 (antibody, human IgG1, kappa, L234A L235A, V domains shown, also called H2L4 antibody) VH: EVQLVQSGAEVKKPGASVKVSCKTSGYTFTEYTMHWVRQAPGKSLEWMGGVNPNSGDTSYAQKFQGRVTITADTSTSTAYMELSSLRSEDTAVYYCARPGGYDVGYYAMDYWGQGTLVTVSS VL: DIQMTQSPSSLSASVGDRVTITCRASQDINNYLNWYQQKPGGAVKLLIYFTSRLHSGVPSRFSGSGSGTDYTLTISSLQPEDFATYYCQQGNTLPWTFGGGTKVEIKR					binds	binds	no binding (tested: 100 nM)	no binding (tested: 100 nM)
humanized anti-CLDN6 antibody H3L3 (antibody, human IgG1, kappa, L234A L235A, V domains shown, hH3 + hL3, with human IgG1 LALA constant region and human kappa chain; also called H3L3 antibody) VH: EVQLVQSGAEVKKPGASVKVSCKTSGYTFTEYTMHWVRQAPGQGLEWMGGVNPNSGDTSYAQKFQGRVTLTVDKSTSTAYMELSSLRSEDTAVYYCARPGGYDVGYYAMDYWGQGTLVTVSS VL: DIQMTQSPSSLSASVGDRVTITCRASQDINNYLNWYQQKPGGAVKLLIYFTSRLHSGVPSRFSGSGSGTDYTLTISSLQPEDFATYYCQQGYPLPWTFGGGTKVEIKR					binds	binds	no binding (tested: 100 nM)	no binding (tested: 100 nM)
humanized anti-CLDN6 antibody H1L1 (antibody, human IgG1, kappa, L234A L235A, V domains shown, hH1 + hL1, with human IgG1 LALA constant region and human kappa chain; also called H1L1 antibody) VH: QVQLVQSGAEVKKPGASVKVSCKASGYTFTEYTMHWVRQAPGQGLEWMGGVNPNSGDTSYAQKFQGRVTITADTSTSTAYMELSSLRSEDTAVYYCARPGGYDVGYYAMDYWGQGTLVTVSS VL: DIQMTQSPSSLSASVGDRVTITCRASQDINNYLNWYQQKPGKAPKLLIYFTSRLHSGVPSRFSGSGSGTDYTLTISSLQPEDFATYYCQQGYPLPWTFGQGTKVEIKR					binds	binds	no binding (tested: 100 nM)	no binding (tested: 100 nM)
